Earlier results on one substance are cited in paper PMC9696605.

This data set concerns the target Fyn SH3 (Homo sapiens) (UniProt P06241).

Fyn SH3 (Homo sapiens), sequence (P06241 79-146): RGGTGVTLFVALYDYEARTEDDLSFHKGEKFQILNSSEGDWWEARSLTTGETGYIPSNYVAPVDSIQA
MBP, sequence (P02686 whole entry): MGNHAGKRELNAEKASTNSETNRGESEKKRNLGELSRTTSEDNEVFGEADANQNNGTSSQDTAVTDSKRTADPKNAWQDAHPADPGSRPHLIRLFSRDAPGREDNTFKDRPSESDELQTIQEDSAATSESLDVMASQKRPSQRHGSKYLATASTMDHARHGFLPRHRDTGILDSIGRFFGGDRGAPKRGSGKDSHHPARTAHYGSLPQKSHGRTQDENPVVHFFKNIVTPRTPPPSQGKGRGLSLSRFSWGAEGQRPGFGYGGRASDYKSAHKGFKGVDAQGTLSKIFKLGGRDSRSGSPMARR

On to MBP (from UniProt P02686), for which the dissociation constant Kd is 6 µM.

As a reminder, the Kd is the constant that tells how readily two partners part at equilibrium.
